Measured values taken from article PMC6370948, “Complement Dependent and Independent Interaction Between Bovine Conglutinin and Mycobacterium bovis BCG: Implications in Bovine Tuberculosis” (Frontiers in Immunology, 2018).

Molecular target: the molecule itself
Experiment: cross-linking; 20 μg/ml purified rfBC with BS3 (5 μl of 1 mM added to 100 μl), room temperature, 0-64 min, stopped with 20 mM Tris-HCl pH 7.5; SDS-PAGE and Coomassie staining

B1: recombinant truncated form of bovine conglutinin (rfBC), composed of the α-helical neck region and the CRD (domain or fragment, bovine (Bos taurus), UniProt P23805 217-371, looked up)
chain: EVNALKQRVTILDGHLRRFQNAFSQYKKAVLFPDGQAVGEKIFKTAGAVKSYSDAEQLCREAKGQLASPRSSAENEAVTQMVRAQEKNAYLSMNDISTEGRFTYPTGEILVYSNWADGEPNNSDEGQPENCVEIFPDGKWNDVPCSKQLLVICEF
notes: bovine conglutinin, neck region (amino acids 197-224) and C-terminal CRD (amino acids 225-351); numbers count on: the mature protein; also called recombinant fragment of conglutinin; recombinant bovine conglutinin
stoichiometry N: 3
